Experimental data taken from patent US20190336589A1, “IMMUNIZING PEPTIDE, METHOD FOR PRODUCING IMMUNIZING PEPTIDE, PHARMACEUTICAL COMPOSITION FOR IMMUNE DISEASE CONTAINING SAME, AND METHOD FOR TREATING IMMUNE DISEASE” (OSAKA UNIVERSITY, priority 2015, published 2019).

What was measured:
[1] = molecular target: T1, 3A9 TCR / complex of HEL antigen and I-A^k on LK35.2 cells (Mus musculus, UniProt P01910+P06343); test: Inhibition of TCR recognition by antibody: binding of soluble single-chain 3A9 TCR to antigen-pulsed LK35.2 cells after reaction with serum; settings: cells reacted with serums of HEL-immunized mice, diluted 10-fold
T1 construct: LK35.2 cells expressing I-A^k (the MHC class II molecule); endogenous in cells; host or cells: LK35.2 cells (I-A^k); the 3A9 scTCR-Fc is culture supernatant of transfected 293T cells
T1 sequence (P01910 24-256): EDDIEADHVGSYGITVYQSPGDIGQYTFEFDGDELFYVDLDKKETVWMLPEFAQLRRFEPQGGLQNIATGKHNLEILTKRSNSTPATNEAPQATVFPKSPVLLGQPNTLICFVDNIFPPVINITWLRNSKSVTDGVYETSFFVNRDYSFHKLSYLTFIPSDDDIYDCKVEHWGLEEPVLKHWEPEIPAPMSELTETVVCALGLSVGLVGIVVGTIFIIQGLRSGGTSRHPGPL
T1 sequence (P06343 28-263): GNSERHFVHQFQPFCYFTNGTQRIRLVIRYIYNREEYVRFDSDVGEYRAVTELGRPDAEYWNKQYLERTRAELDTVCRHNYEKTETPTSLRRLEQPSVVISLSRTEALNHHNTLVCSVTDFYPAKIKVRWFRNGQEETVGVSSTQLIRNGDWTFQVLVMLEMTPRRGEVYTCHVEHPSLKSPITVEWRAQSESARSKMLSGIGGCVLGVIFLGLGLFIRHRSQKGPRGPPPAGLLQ
Text: From 3A9 T cell hybridomas (obtained from Laboratory of Vaccine Materials, National Institutes of Biomedical Innovation) expressing a TCR that recognizes a complex of a peptide consisting of the amino acid sequence of SEQ ID NO: 1 (the T-cell epitope) and I-A^k (the MHC class II molecule), the TCR was cloned. Specifically, from cDNA derived from the 3A9 T cell hybridomas, a polynucleotide encoding the following α-chain and β-chain of 3A9 TCR linked by a GGGGS linker was cloned into a pME18S vector. Thus, a 3A9 TCR expression vector was produced. The vector was designed so that the Fc domain of human IgG is added to the C terminus of an expressed protein. Thus, by introducing the expression vector to a host, a soluble single-chain TCR composed of 3A9 TCR and Fc bound thereto is expressed (3A9 scTCR-Fc).
Next, the 293 T cells were cultured for 96 hours under the same 30 culture conditions as in the item (1) in Example 1A, except that the 3A9 TCR expression vector was introduced instead of the I-A^k c expression vector and the I-A^k f expression vector. After the culture, the supernatant was collected, and the collected supernatant was used as the soluble single-chain TCR.
LK35.2 cells expressing I-A^k (the MHC class II molecule) were seeded in a 24-well plate at a density of 1×10^5 cells/1 ml/well. Next, the HEL protein was added to the wells at a concentration of 200 μg/ml, or the HEL peptide 41-70 or the HEL peptide 48-61 was added to the wells at a concentration of 20 μmol/l. The LK35.2 cells were pulsed with the HEL protein or the HEL peptide by culturing the HEL protein-added group for another 48 hours and the HEL peptide added groups for another 24 hours under the above-described culture conditions. The cultured LK35.2 cells were collected from the wells. Thereafter, the collected LK35.2 cells were used in inhibition of TCR recognition by an antibody to be described below.
Serum collected from each of the HEL protein-immunized mice was diluted 10-fold with HBSS to obtain a diluted serum. Next, 10 μl of the diluted serum was added to the LK35.2 cells obtained in the above item (2) to cause a reaction. Further, a dimer of 20 μl of the supernatant obtained in the above item (1) and 10 μl of an APC-labeled anti-human IgG Fc antibody (code number: 109-136-098, Jackson ImmunoResearch) diluted 100-fold was formed beforehand, and the LK35.2 cells after the reaction were reacted with the dimer. Then, the LK35.2 cells were analyzed by flow cytometry. As Control 1, the flow cytometry analysis was performed in the same manner, except that serums collected from non-immunized mice were used instead of the serums of the HEL protein-immunized mice. […]

[2] = molecular target: T2, complex of HEL peptide and MHC class II molecule (I-A^k) on LK35.2 cells (Mus musculus, UniProt P01910+P06343); test: Immunization of mice with HEL peptides; serum IgG1 binding to HEL peptide-pulsed LK35.2 cells (flow cytometry); type: in vivo, mice (B10.A strain); settings: 30 nmol peptide with CFA subcutaneously; serum two weeks after administration
T2 construct: LK35.2 cells expressing I-A^k (the MHC class II molecule); endogenous in cells; host or cells: LK35.2 cells
T2 sequence (P01910 24-256): as the sequence (P01910 24-256) above
T2 sequence (P06343 28-263): as the sequence (P06343 28-263) above
Description: 30 nmol of the HEL peptide 41-70 or the HEL peptide 48-61 was mixed with a complete Freund's adjuvant. Each of the thus-obtained mixture was administered subcutaneously to mice (B10.A strain). Two weeks after the administration, whole blood was collected from each mouse, and serum was collected from the whole blood.
LK35.2 cells were pulsed with the HEL peptide in the same manner as in the item (2) in Example 1B, except that the HEL peptide 41-70 or the HEL peptide 48-61 was added instead of the HEL protein, the HEL peptide 41-70, and the HEL peptide 48-61. The cultured LK35.2 cells were collected from the wells. Thereafter, the collected LK35.2 cells were used in antibody detection to be described below.
Flow cytometry analysis was performed in the same manner as in the item (3) in Example 1A, except that the LK35.2 cells in the item (2) in Example 2A were used instead of the 293 T cells and that an Alexa®647-labeled anti-mouse IgG1 antibody (catalog number: A21240, Invitrogen) was used instead of the APC-labeled anti-mouse IgG (H+L) antibody (peptide added groups). As Control 1, the flow cytometry analysis was performed in the same manner, except that serums collected from non-immunized mice were used instead of the serums of the HEL peptide-immunized mice. As Control 2, the flow cytometry analysis was performed in the same manner, except that the HEL peptide was not added (peptide non-added groups).

Sequence	binding of soluble single-chain TCR to LK35.2 cells pulsed with the antigen [1]	IgG1 binding of serum of peptide-immunized mice to LK35.2 cells pulsed with HEL peptide 41-70 [2]	IgG1 binding of serum of peptide-immunized mice to LK35.2 cells pulsed with HEL peptide 48-61 [2]
DGSTDYGILQINSR (Gallus gallus domesticus) [HEL peptide 48-61, reference compound]	observed	not observed	not observed
QATNRNTDGSTDYGILQINSRWWCNDGRTP (Gallus gallus domesticus) [HEL peptide 41-70]	not observed	observed	not observed
